The source of these data is the DeepSol protein solubility set.

The data set in a line: soluble on expression in E. coli; label from the status in PepcDB or PDB records.
Regarding “MGSDKIHHHHHHMNTLANWKKFLLVAVIICFLVPIMTKAEIAEADTSSELIVSEAKNLLGYQYKYGGETPKEGFDPSGLIQYVFSKADIHLPRSVNDQYKIGTAVKPENLKPGDILFFKKEGSTGTVPTHDALYIGDGQMVHSTQSKGVIITNYKKSSYWSGTYIGARRIAADPATADVPVVQEAEKYIGVPYVFGGSTPSEGFDCSGLVQYVFQQALGIYLPRSAEQQWAVGEKVAPQNIKPGDVVYFSNTYKTGISHAGIYAGAGRFIQASRSEKVTISYLSEDYWKSKMTGIRRFDNLTIPKENPIVSEATLYVGEVPYKQGGVTPETGFDTAGFVQYVYQKAAGISLPRYATSQYNAGTKIEKADLKPGDIVFFQSTSLNPSIYIGNGQVVHVTLSNGVTITNMNTSTYWKDKYAGSIRVQ”, the “soluble on expression in E. coli” value is “not soluble”.

With “MGSDKIHHHHHHMNTRLKDTSGHSPIDPRILDEAAAWLMQLHASTVTDMERNAWEQWRLRSPQHRQAWERAEQLMNKMGGLPPALSMAALTHPGGNNRRAAIKKLALLMTALPASWAAWRVTPWEAWMAEYRTMVSEQREIELADGSQVRLNTATSIDVRFNAVQRLIVLHTGEILIQTAADNAVTPRPFQVLTAEGRLYALGTRFTVRQGEERSHVAVFDGAVAIHPKSGDSGVAQVLHAGNKTVFTAEAIEVSRPADDTDIAWTQGMLLADKMHLTDFTDELSRYRQGIVRCDPVLADLRISGAFPIRDTDRTLAMLQATYPVRIVYRTPYWVTLVPR”, the “soluble on expression in E. coli” value is reported as “not soluble”.

On to “MGSDKIHHHHHHMNVENQTPNVDHQEIAKFEAIASRWWDLEGEFKPLHRINPLRLGYISQRAEGLFGKKVLDVGCGGGILAESMAREGADVTGLDMGAEPLQVARLHALESGVTVDYVQETVEAHADAHSGLYDVVTCMEMLEHVPDPQSVVQACAKLVKPGGHVFFSTINRNAKAWMMAVIGAEYILKMVPRGTHDIKKFIRPAELMRWVDDTPLRERHITGLHYNLLTDRFKLGPNVDVNYMLHTSHDKQC”, for which the “soluble on expression in E. coli” value was “not soluble”.

Take “MGSDKIHHHHHHMNWDDVRIFLAVARAGQILGAARRLELNHATVSRRIAALEDALRTKLFRRLTTGSELTPAGERFLDIAERMEGEMIAARSTISGEGDDISGTVRIGAPDGFGVAFLARRLGELTALHRELTIQLVPVPRSFSLSRREADIAITVERPTEGRLVAGKLVDYSLGLFASRAYADANGLPKTAAELGRHPLIGYVPDLIVSPSLDYAAEFSADWRTSFAISSALGQAEAVRSGAGIGILHTFVARSMPELVAVDAVAPIRRAYWLVYHESVRPLRRIQIVAGFITKAVERERSLFL”: the “soluble on expression in E. coli” value is on record as “not soluble”.

“MGSDKIHHHHHHMNYKITTLAENSVYGKGLQGEHGLSLLVEAGEHKVLFDTGASDLFLRNARLLGLDLSDVEYVVLSHGHRDHTGGLYAFLKMNSVAKVVCKREVFRKKFKNERENGMLHPEALDKSRFWLVDETTEIVPGVFAFPDVKVVDRNDTHFEHFFTEIEGEMRPDTFEDELALVLKGEKSLSVLSACSHRGITNIIRAVQNAFPGLGLKLVMGGFHIHNAEEEKFNVISAFLGMKLPKRLGVCHCTGIDKYALFRQQFNDRVFYNYTGWVETI”: the “soluble on expression in E. coli” value is given as “not soluble”.

For the sequence “MGSDKIHHHHHHMNYVKSKQRVADHGEVFTPAWLVEAMIDLVKDETERIDARFLEPACGSGNFLVPILQRKLAAVERKFGKSNFEKQHYALFAVMCTYGIELLADNIAECRANMLEIFADYLTLDESDELYRAAIYVLSQNLVHGDALKMRTSDGQPIAFAEWGYLGKGKFQRRDFRLDSLAMSSTFSVEGSLFAHLGKHEIFTPTRTYPPMTVSELAARAAEANL”, the “soluble on expression in E. coli” value was “not soluble”.

With “MGSDKIHHHHHHMPETAHGVPVSTVKPDGAAMALKSKLLLIILDGVPYRNWRRLMGNLEGWVQSGEARVWKMRSVLPSTSACCYASIHTGVSPQVHGILSNENRFRVGQPDIFSEVSKAGGKTGAVTHSYWSEFFRSYPFDLVEDMEYDEPGGPITHGRFHTMTGYNARNQMTPSDVDLFATLTMLTKRHGIDYGILHTCTLDSMGHRFGNDCHEMDHAVYAMDGMLAAFLPGWIAAGYEVMVTADHGQTDRGHHGGHDDEMQDFALYYFGQGQGPETDTLLDQLQLAPTVLSRLGVPVPATMKAKPFLS”, the “soluble on expression in E. coli” value is “not soluble”.

Consider “MGSDKIHHHHHHMPHHQPCPPASSLSAGPRGGVIMLILKNVTAVQLHPAKVQEGVDIAIENDVIVAIGDALTQRYPDASFKEMHGRIVMPGIVCSHNHFYSGLSRGIMANIAPCPDFISTLKNLWWRLDRALDEESLYYSGLICSLEAIKSGCTSVIDHHASPAYIGGSLSTLRDAFLKVGLRAMTCFETTDRNNGIKELQEGVEENIRFARLIDEAKKATSEPYLVEAHIGAHAPFTVPDAGLEMLREAVKATGRGLHIHAAEDLYDVSYSHHWYGKDLLARLAQFDLIDSKTLVAHGLYLSKDDITLLNQRDAFLVHNARSNMNNHVGYNHHLSDIRNLALGTDGIGSDMFEEMKFAFFKHRDAGGPLWPDSFAKALTNGNELMSRNFGAKFGLLEAGYKADLTICDYNSPTPLLADNIAGHIAFGMGSGSVHSVMVNGVMVYEDRQFNFDCDSIYAQARKAAASMWRRMDALA”, for which the “soluble on expression in E. coli” value is “not soluble”.

As to “MGSDKIHHHHHHMPKVEIAPSEIKIPDNVLKAKLGFGGAEEIPEEFRKTVNRAYEELLDAAKPVVLWRDFEVDGSLSFDDMRLTGELATKHLSGSKIITVFLATLGKKVDEKIEEYFRKGEDLLAFFIDGIASEMVEYALRKVDAELRMKRSNLEGSFRISPGYGDLPLSLNKKIAEIFKEEVDVNVIEDSYVLVPRKTITAFVGWREKNEKQT”, the “soluble on expression in E. coli” value is “soluble”.

As for “MGSDKIHHHHHHMPLNMNRDVFITAAVTGSGGTQDKSPHVPRSPKEIAASAIEAARAGAAVVHCHVRDPETGAPSRRLELYRELTDRIRDSEVDVVLNLTAGMGGDIVFGSTEAPLPVNEAATDMIGATERMAHIAECLPEICTLDCGTMNFAEADYVMTNTPGMLRAMGQMMTDLGVKPEIEAFDTGHLWFAKQLVKEGILEPNALVQLCMGVPWGAPNDLNTFMAMVNNVPSDWTWSAFSLGRDQMPFAAASVLAGGNVRVGLEDNLFLDKGVLATNAQLVERAVSVIEGMGAKIVGPDAVREKLGLTKRAPVAA”, the “soluble on expression in E. coli” value was “not soluble”.

As to “MGSDKIHHHHHHMPPLNALRAFDAVARHGSFAGAAAELHVTHWAVGKQIRLLEDWFGLPLFDRRPRGVVLTDEGAVLLNDVSHAFEHLGTAVVRLRHNTLAHRISGVVRVNVPMSFAFCWLLPRLADFHSRYPDIDVRVSTTSRKLRYVADAFDIGVRSGPEQGAGVVSRPLMPDLRVPACNPALLRQHPIQSVADLRHHTLLHSATTRSAWSHWLREAGAADLRAARHVEFDHVNLQLGAAIEGLGVALASLPLIGRDLAEGRLVCPIASPVWRADDYTLVTNADRADDAAVSAFEQWMESMASQEAG”, the “soluble on expression in E. coli” value is “not soluble”.

Turning to “MGSDKIHHHHHHMPRDTLVSHRQSVDIGGKFSGKTVLTLDVYGTLIDWERGICDALGPILRGHGLSTSEDEMLERYATHESALEAGPYLTYREILEESLLRIAADLGFTPSEYELDIFSHSVGDWPAFADSRAALVALQKRFRLAVITNGDDEFFSLSNKHLKIQFDYVVTAQQARSYKPSLNNFHVALGRIDAPRSQILHVAQSLYHDHVPAQALGLQTVWINRRRGKPGFGAVPKAEAVPDAEFDDMRAFADAMLER”, the “soluble on expression in E. coli” value is “not soluble”.

As for “MGSDKIHHHHHHMPSERASSFDIMLWVLSGCSELLYGTQALPLTGKVDRIFGPAREPRDVRVLNYLELADRLDRSGIGTAVDHQRAALSETDIEVETTPWQEGHPAWALGGNIAFNDPMFREFDIAHCNMIGPGSVAVARYAAQADIPLVLHAHVTREDFRDSFRGSNLIAPVLGRYLRWFYSQADLVLCPSEYTKGILESYPVDAPIRPMTNGVDIDALAGHEDMREDYRRRYDLDGMVVFAVGNVFERKGLTTFCELAQETEHDFAWFGPYDAGPQASKTVSRWVNNPPENVTFTGWVEDIRGAFGAGDVYLFPTKAENQGIAVLEAMACGKAVVLSDIPVFREYYEDGHDCLICADEAEFREALERLAENPDLRERLGENARETAREHSLDRVSRRLVETYEELA”, the “soluble on expression in E. coli” value is “not soluble”.

Consider “MGSDKIHHHHHHMPSKISQLVTGQKIEVQLSSSNVPARFYSEFIGAVNERWVIVNMPDARKYNDMRDLLQEKTPVIVRFVLENESGEICAFRSEISYVISHPTKMLFIMWPNQIEHRIIRKGRRFDAFLPASVSGQSVKGEENTFRGHVLDVSESGCRLKHEKPEGKIDELWENGSKIVLKIEQKNNGDLTLKAIVRQVKQVDDQLELGVQFMGNQKDEVNSLFSGSLVDIDELSRLESST”, for which the “soluble on expression in E. coli” value is “not soluble”.

As for “MGSDKIHHHHHHMPTGLDCTQTMLYRRFGKTNLHLSVFSLGTMRYLADSENVQQTIATALALGINHIETARGYGKSEEYFGQAIKVGLSVARSQLYVTTKIPPTSDADSMRRYIDESLERLNLDYLDCLGIHGLNTWEHLEWVQAKGGCMKAVEEAINDGRIRHVGFSTHGSLEVIQAAINTDFFEFVNLHYYYFFQRNAPAIKLASEKDMGIFIISPADKGGKLYTAPQTLQDLCQPLSPLELNYRFLLSDQRITTLSVGPATPEELVEPLQVADSCGELTSAEITIFQRLQNHQESVLETDKCSQCYACLPCPENINIPEVLRLRNLAVAYNMTDYGQYRYGMFENAGHWFPGMKANRCTECGDCLPRCPEKLDIPNLLEDAHNRLNGRAGRRLWG”, the “soluble on expression in E. coli” value was “not soluble”.

For the sequence “MGSDKIHHHHHHMPTLKEKIIQESQRLGIDKIGFTHAEPFIELEDSLHEQRERGYNSGFEHQNVEERIYPEKTFEHPKSIISIALAYPTKAQEKMPRDEKRGQFARASWGIDYHHILQDRLQKLIAFIEEQAATEAEKEHWRFRPQVDTGEYVDTAVAQRAGLGFIGKNGLLITEEFGSFVYLGEVTTNIQFEPDEPVPNGCGDCTRCITGCPTGALLGDGRMNAQKCLSYQTQTKGMMPEDYRKKMRNVIYGCDICQLVCPYNKGKDFHFHEEMEPKIEEVYPKLAPLLTISNKEFKQQFGHLAGSWRGKKPLQRNALIALANLGGREAIPQIILCLNDQRPVIRGTAAWSLGQLAKREPEQSLEALNYLLSVETEEEVIEEAQKAIHLLTSKKGSRSTE”, the “soluble on expression in E. coli” value is recorded as “not soluble”.

In the case of “MGSDKIHHHHHHMPVTAIFSPDTPAMGIGWRHPHYAGLLQTGPALDFIEVHSENFFAPGGAARAVLRQGREHYPVSLHGTGLSLGSACGVDEWHLAQLAELVQEIDPVRVSDHASFARGHLPGTDAPVHAADLLPVPFTREALAVMCSNVQRVQERLKRPIAVENLSAYLDWRAADMRETEFLAALAQRTGCSLLVDVNNLYVNAQNAWLRGALNSAPGDADAALASCRDWIDQIAASPVAELHLAGHAHLGDIVIDDHGSRVCAEVWQLYRHALARLGPVPTLIEWDTDVPALSVLLDEVARARGIAQGRPATRQPSAEARP”, the “soluble on expression in E. coli” value was “not soluble”.

In the case of “MGSDKIHHHHHHMQFGNHPYYANELMLSLDEASGMVGEDARVAEFIRPLYGSRESISGTPRTCLWITDENLALAQEIPAVWARVEKVRKDRKTKTKDVQAKKLVETPWRFRDQYEAESSLLVVPIVSSENRPYLPVVLLSKEAIVHNKAFALYDAPLWNFALIVSKMHLVWVAAVCVRLEMRYSYSNTLGWNTFPVPTLTEQNKADLTRCAEDILLARESHYPATIADLYGPDNMPDDLLRAHERNDEVLERIYIGRRFRNDTERLEKLFDLYTKMTAGQGKPKKKAKK”, the “soluble on expression in E. coli” value is on record as “not soluble”.

Regarding “MGSDKIHHHHHHMQIKALIYFDELVRTRSMRAAAERLNVQPTAFARQIDQLEHYFGTVLIERSSRGIQLTAAGELLAARAGKTLRELNHVHQLIDDLQGLKRGHVTIHANGATVANLLAPALADFSLVYPNIRFSVTISSAGQAMEALSSAKADMAVTLFSEPDPGIRVRARAQIVYDVIAASHHPAAHLAEMTVTELARFPLAVPDGSFGARRAFDAWFSKAGLELDPVFVTGSLEMQRELVLRGAALTLLPAQTVARERRSGELVVIPVAGGAGIRTPIDLCVAGDRQLSFAASKLVDAVERFMREQMGK”, the “soluble on expression in E. coli” value was “not soluble”.
